From patent publication EP1506972A1 (Genentech Inc., dated 2005)
Residue numbers refer to the chain shown, from its start.

Assays:
Experiment in all cases: competitive phage ELISA, soluble IGFBP-1 vs coated IGFBP-1
[1] = biological target: T1, IGF-I G7A (G1S-A70V background) displayed on phage (human; bacteriophage M13)
T1 construct: not shown: M13 gene III fragment (residues 249-406, display carrier) and the IGF-g3 junction
T1 chain: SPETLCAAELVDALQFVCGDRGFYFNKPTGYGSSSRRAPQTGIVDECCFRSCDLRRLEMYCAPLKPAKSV

[2] = biological target: T2, IGF-I L10A (G1S-A70V background) displayed on phage (human; bacteriophage M13)
T2 construct: not shown: M13 gene III fragment (residues 249-406, display carrier) and the IGF-g3 junction
T2 chain: T1 chain with A7G, L10A

[3] = biological target: T3, IGF-I L14A (G1S-A70V background) displayed on phage (human; bacteriophage M13)
T3 construct: not shown: M13 gene III fragment (residues 249-406, display carrier) and the IGF-g3 junction
T3 chain: T1 chain with A7G, L14A

[4] = biological target: T4, IGF-I T29A (G1S-A70V background) displayed on phage (human; bacteriophage M13)
T4 construct: not shown: Display carrier: M13 gene III protein fragment (residues 249-406) and the junction to it
T4 chain: T1 chain with A7G, T29A

[5] = biological target: T5, IGF-I G1S-A70V displayed on phage (fused to M13 gene III protein residues 249-406) (human; bacteriophage M13)
T5 construct: Monovalent display on M13 phagemid particles; template of the alanine scan; also called G1S-A70V IGF-I; wild-type-like IGF-I variant; not shown: Display carrier: M13 gene III protein fragment (residues 249-406) and the junction to it

[6] = biological target: T6, wild-type IGF-I displayed on phage (double mutation restoring wild type) (human; bacteriophage M13, UniProt P69168 267-424)
T6 construct: range 249-406; also called IGF-I WT; WT

[7] = biological target: T7, IGF-I D45A (G1S-A70V background) displayed on phage (human; bacteriophage M13)
T7 construct: not shown: Display carrier: M13 gene III protein fragment (residues 249-406) and the junction to it
T7 chain: T1 chain with A7G, D45A

[8] = biological target: T8, IGF-I E46A (G1S-A70V background) displayed on phage (human; bacteriophage M13)
T8 construct: not shown: Display carrier: M13 gene III protein fragment (residues 249-406) and the junction to it
T8 chain: T1 chain with A7G, E46A

[9] = biological target: T9, IGF-I R56A (G1S-A70V background) displayed on phage (human; bacteriophage M13)
T9 construct: not shown: M13 gene III fragment (residues 249-406), the display partner, and its junction to IGF-I
T9 chain: T1 chain with A7G, R56A

[10] = biological target: T10, IGF-I S1A (G1S-A70V background) displayed on phage (human; bacteriophage M13)
T10 construct: range 249-406; the result is Ala 1

[11] = biological target: T11, IGF-I L57A (G1S-A70V background) displayed on phage (human; bacteriophage M13)
T11 construct: not shown: M13 gene III fragment (residues 249-406), the display partner, and its junction to IGF-I
T11 chain: T1 chain with A7G, L57A

[12] = biological target: T12, IGF-I P63A (G1S-A70V background) displayed on phage (human; bacteriophage M13)
T12 construct: not shown: M13 gene III fragment (residues 249-406), the display partner, and its junction to IGF-I
T12 chain: T1 chain with A7G, P63A

[13] = biological target: T13, IGF-I K68A (G1S-A70V background) displayed on phage (human; bacteriophage M13)
T13 construct: not shown: Display carrier: M13 gene III protein fragment (residues 249-406) and its junction to Val70

[14] = biological target: T14, IGF-I P2A (G1S-A70V background) displayed on phage (human; bacteriophage M13)
T14 construct: range 249-406

[15] = biological target: T15, IGF-I V70A (single mutant of G1S-A70V) displayed on phage (human; bacteriophage M13)
T15 construct: not shown: Display carrier: M13 gene III protein fragment (residues 249-406) and its junction to residue 70

[16] = biological target: T16, des(1-2)-IGF-I displayed on phage (human; bacteriophage M13)
T16 construct: range 249-406; Lacks positions 1 and 2

[17] = biological target: T17, IGF-I E3A (G1S-A70V background) displayed on phage (human; bacteriophage M13)
T17 construct: not shown: Display carrier: M13 gene III protein fragment (residues 249-406) and its junction to Val70

[18] = biological target: T18, IGF-I T4A (G1S-A70V background) displayed on phage (human; bacteriophage M13)
T18 construct: not shown: The display carrier: M13 gene III protein fragment (residues 249-406) and the junction to it
T18 chain: T1 chain with T4A, A7G

[19] = biological target: T19, IGF-I L5A (G1S-A70V background) displayed on phage (human; bacteriophage M13)
T19 construct: not shown: The display carrier: M13 gene III protein fragment (residues 249-406) and the junction to it
T19 chain: T1 chain with L5A, A7G

B1: human IGFBP-1 (other, UniProt P08833 26-259, looked up)
chain: APWQCAPCSAEKLALCPPVSASCSEVTRSAGCGCCPMCALPLGAACGVATARCARGLSCRALPGEQQPLHALTRGQGACVQESDASAPHAAEAGSPESPESTEITEEELLDNFHLMAPSEEDHSILWDAISTYDGSKALHVTNIKKWKEPCRIELYRVVESLAKAQETSGEEISKFYLPNCNKNGFYHSRQCETSMDGEAGLCWCVYPWNGKRIPGSPEIRGDPNCQIYFNVQN
notes: Secreted recombinant protein
[1]
  relative IC50 (IC50mut/IC50 G1S-A70V): > 100 fold
[2]
  relative IC50 (IC50mut/IC50 G1S-A70V): 37.9 fold
[3]
  relative IC50 (IC50mut/IC50 G1S-A70V): 4.5 fold
[4]
  relative IC50 (IC50mut/IC50 G1S-A70V): 0.9 fold
[5]
  relative IC50 (IC50mut/IC50 G1S-A70V): 1 fold
[6]
  relative IC50 (IC50mut/IC50 G1S-A70V): 1 fold
[7]
  relative IC50 (IC50mut/IC50 G1S-A70V): 0.6 fold
[8]
  relative IC50 (IC50mut/IC50 G1S-A70V): 1 fold
[9]
  relative IC50 (IC50mut/IC50 G1S-A70V): 1.6 fold
[10]
  relative IC50 (IC50mut/IC50 G1S-A70V): 0.6 fold
[11]
  relative IC50 (IC50mut/IC50 G1S-A70V): 2.7 fold
[12]
  relative IC50 (IC50mut/IC50 G1S-A70V): > 100 fold
[13]
  relative IC50 (IC50mut/IC50 G1S-A70V): 1.3 fold
[14]
  relative IC50 (IC50mut/IC50 G1S-A70V): 1.3 fold
[15]
  relative IC50 (IC50mut/IC50 G1S-A70V): 2.3 fold
[16]
  relative IC50 (IC50mut/IC50 G1S-A70V): 0.6 fold
[17]
  relative IC50 (IC50mut/IC50 G1S-A70V): 33.9 fold
[18]
  relative IC50 (IC50mut/IC50 G1S-A70V): 2.4 fold
[19]
  relative IC50 (IC50mut/IC50 G1S-A70V): 6.7 fold
